Laboratory results: patent US20260273045A1

Target: OVA peptide SIINFEKL bound to H-2Kb MHC I on mouse phDC / BMDC (mouse)
Assay: cell-based or functional assay

Proliferation of the OT1 CD8 T cells (CFSE dilution), coculture with titrated numbers of OVA mRNA LNP-transduced phDC: < 47%
Sequence: T cell receptor of OVA-specific OT1 CD8 T cells (C57Bl/6-Tg (TcraTcrb)1100Mjb/J mice)
